Here are results for 14 sequences from the supplement of paper PMC9170038.

For this data set, the system named is K4 kissing-loop RNA reporter. As to the kind of experiment: apparent KD of K4 kissing-loop reporter; higher = weaker reporter binding. The conditions noted are these: Eterna round: R107. How it is done:
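RNA-MaP round R107: designed RNA switches with theophylline, tryptophan, arginine or FMN aptamers are transcribed on-chip within common flanks. They are titrated with a labelled K4 kissing-loop RNA reporter in RNA-MaP buffer (100 mM Tris pH 7.5, 80 mM KCl, 4 mM MgCl2), without ligand or with the indicated ligand. Median apparent KD per design.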

The mark [1] stands for this setting: input ligand: theophylline 20 uM.
The mark [2] stands for this setting: input ligand: tryptophan 2.4 mM.
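Note: bound reporter read as fluorescence of individual clusters on recovered sequencing chips by microscopy, with normalized cluster intensities fitted with a binding model.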

For “AAAAGAAAGUCGGCCGCCACUCAACGCAGUGAUGUUGCAAGACAGAAGACCAGUGAUGUUGGCCAGAGGACCGGGACAAAAGGCC [Same State Typtophan B GF 4]”, the “apparent KD of K4 kissing-loop reporter” value reads like this: (input ligand: FMN 200 uM) 0.591 µM; (input ligand: arginine 13.2 mM) 0.945 µM; (input ligand: none) 0.842 µM; under setting [1], 0.435 µM; under setting [2], 0.464 µM.
As for “AAAAGCAGAAAGACGCAUUAAAGAACCGAAGGAGCGCGGAAUUACGCAGGUAGGUCGCGGGAUAAGCGAGUGAUGUUCGCGAAAG [Arginine A Same State; Euphoria Solution]”, the “apparent KD of K4 kissing-loop reporter” value by setting is: (input ligand: FMN 200 uM) 0.0607 µM; (input ligand: arginine 13.2 mM) 0.105 µM; (input ligand: none) 0.0721 µM; under setting [1], 0.0895 µM; under setting [2], 0.0536 µM.
Take “AAAAUAAACCAGUGAUGUUGGUGUCCAGAUACCAGCGAUAAAAUUCGCCCUUGGCAGCUGUGGACGUACAAAAUAAGUACGUCCU [MatMod 3 - Jieux - Same State - Theophylline A]”: the “apparent KD of K4 kissing-loop reporter” value runs as follows: (input ligand: FMN 200 uM) 0.734 µM; (input ligand: arginine 13.2 mM) 0.555 µM; (input ligand: none) 0.837 µM; under setting [1], 0.525 µM; under setting [2], 0.674 µM.
Regarding “AAAAUAAACCAGUGAUGUUGGUGUCCAGAUACCAGCGGUAAAAUCCGCCCUUGGCAGCUGUGGACGUACAAAAUAAGUACGUCCU [MatMod 4 - Jieux - Same State - Theophylline A]”, the “apparent KD of K4 kissing-loop reporter” value reads like this: (input ligand: FMN 200 uM) 0.43 µM; (input ligand: arginine 13.2 mM) 0.321 µM; (input ligand: none) 0.463 µM; under setting [1], 0.286 µM; under setting [2], 0.358 µM.
In the case of “AAAAUAAACCAGUGAUGUUGGUGUCUAGAUACCAGCGACAAAAGUCGCCCUUGGCAGCUACGGACGUACAAAAUAAGUACGUCCU [MatMod 9 - Jieux - Same State - Theophylline A]”, the “apparent KD of K4 kissing-loop reporter” value amounted to 0.468 µM (input ligand: FMN 200 uM); 0.353 µM (input ligand: arginine 13.2 mM); 0.472 µM (input ligand: none); 0.481 µM under setting [1]; 0.405 µM under setting [2].
The like results for “AAAAUAAUCCAGUGAUGUUGGUAUUCAGAUACCAGCGACGAAAGUCGCCCUUGGCAGCUGUGGACGUACAAAAUAAGUACGUCCU” were, in that order, 0.967 µM, 0.657 µM, 1.06 µM, 0.944 µM and 0.66 µM.
In the case of “AAAAUUGCGGUCGAUAGAACUUUUUGCUUACGAGGACCGGUACGGCCGCCACUCGAGUCAAGUGAUGUUUGAUUUUCUAUUAUUA [JR_ExcTryptoA_Sub014]”, the “apparent KD of K4 kissing-loop reporter” value reads like this: (input ligand: FMN 200 uM) 0.112 µM; (input ligand: arginine 13.2 mM) 0.166 µM; (input ligand: none) 0.141 µM; under setting [1], 0.176 µM; under setting [2], 0.0985 µM.
Taken in the same sequence, the figures for “AAACUCAGUGAUGUUGAGUGGGAGCGGGAUACCAGAUCGCCCAUCAUCCCUUGGCAGCCCGAGCGUCAGAAUACAUUUCAUUUGC [theeternabot_sameState_KL_Theo_A_6]” were 0.339 µM, 0.349 µM, 0.349 µM, 0.385 µM and 0.263 µM.
Taken in the same sequence, the figures for “AAAGACUGACUGCAAUUAGCAGUCAGUCAACGAGGACCGGUACGGCCGCCACUCGGGUCCUAGAGUGAUGUUCUAAUAAUAUAAA [AK1.2 SS Tryptophan A]” were 0.374 µM, 0.495 µM, 0.319 µM, 0.49 µM and 0.207 µM.
Taken in the same sequence, the figures for “AAAGAUGCGUCGGCCGCCACUGUGAUCUACGAAAGUAGUAUGUAGAUGCAGUGAUGUUGCAUUUUCAGGACCGGGACGUAAGAUG [3rd]” were 0.447 µM, 0.362 µM, 0.321 µM, 0.496 µM and 0.211 µM.
In the case of “AAAGGAUCAGAGAGUGAUGUUCUCUAAUAACGAGGACCGGUACGGCCGCCACUCGAAUAGAUCCAAGUCCUACGAAAAGUAGGAC [Omei inspired 8]”, the “apparent KD of K4 kissing-loop reporter” value is 0.274 µM (input ligand: FMN 200 uM); 0.217 µM (input ligand: arginine 13.2 mM); 0.316 µM (input ligand: none); 0.308 µM under setting [1]; 0.21 µM under setting [2].
The like results for “AAAGGCAAAGCCCGAGUGAUGUUCGACGAUACCAGCCUCGAUAGAGGCCCUUGGCAGCGUAAAUGAUCAUGAAGCCAAGGAAUAA [whbob_Ex_Theo_A_th67]” were, in that order, 0.352 µM, 0.302 µM, 0.352 µM, 0.26 µM and 0.313 µM.
Taken in the same sequence, the figures for “AAAGGCAUAGCCCGAGUGAUGUUCGACGAUACCAGCCUCGAUAGAGGCCCUUGGCAGCGUAAAUGAUCAUGAAGCCAAGGAAUAA [whbob_Ex_Theo_A_th68]” were 0.34 µM, 0.303 µM, 0.391 µM, 0.816 µM and 0.422 µM.
The like results for “AAAGUGUCAGCACGAGUGAUGUUCGACGAUACCAGCCUCGAUAGAGGCCCUUGGCAGCGUAAAAGUCAAGGGCUGGCACAUAAAA [#SwitchBubble 5 #K4Early]” were, in that order, 0.789 µM, 0.751 µM, 1.3 µM, 0.494 µM and 1.44 µM.
